Experimental data taken from article PMC10653885 (mBio, 2023).

Assays:
[1] = target: recombinant BB0238 Y37A (rY37A) (Borrelia burgdorferi B31); experiment: MST; 10 nM target protein labelled with Red-tris-NTA dye; 12-point 1:1 serial dilution of the ligand from 20 µM; PBS + 0.05% Tween-20, pH 7.4; 40% MST power, 10% LED power; TJump analysis, KD fit model of 1:1 stoichiometry; three biological replicates
[2] = target: recombinant BB0238 P65A (rP65A) (Borrelia burgdorferi B31); experiment: as above
[3] = target: recombinant BB0238 Y37A (rY37A) (Borrelia burgdorferi B31); experiment: SEC; analytical size exclusion chromatography on a calibrated Superose 12 column; apparent molecular masses from a standard curve
[4] = target: recombinant wild-type BB0238 (rBB0238^WT) (Borrelia burgdorferi B31) (UniProt O51254); experiment: MST; 10 nM target protein labelled with Red-tris-NTA dye; 12-point 1:1 serial dilution of the ligand from 20 µM; PBS + 0.05% Tween-20, pH 7.4; 40% MST power, 10% LED power; TJump analysis, KD fit model of 1:1 stoichiometry; three biological replicates
[5] = target: recombinant BB0323 (rBB0323) (Borrelia burgdorferi) (UniProt O51302); experiment: as above
[6] = target: recombinant BB0238 P65A (rP65A) (Borrelia burgdorferi B31); experiment: SEC; analytical size exclusion chromatography on a calibrated Superose 12 column; apparent molecular masses from a standard curve
[7] = target: T1, recombinant BB0323 (rBB0323) (Borrelia burgdorferi, UniProt O51302 1-377, labelled with NanoTemper Red-tris-NTA dye (only in the MST with BB0108)); experiment: MST; 10 nM target protein labelled with Red-tris-NTA dye; 12-point 1:1 serial dilution of the ligand from 20 µM; PBS + 0.05% Tween-20, pH 7.4; 40% MST power, 10% LED power; TJump analysis, KD fit model of 1:1 stoichiometry; three biological replicates; conditions: both partners purified
T1 sequence: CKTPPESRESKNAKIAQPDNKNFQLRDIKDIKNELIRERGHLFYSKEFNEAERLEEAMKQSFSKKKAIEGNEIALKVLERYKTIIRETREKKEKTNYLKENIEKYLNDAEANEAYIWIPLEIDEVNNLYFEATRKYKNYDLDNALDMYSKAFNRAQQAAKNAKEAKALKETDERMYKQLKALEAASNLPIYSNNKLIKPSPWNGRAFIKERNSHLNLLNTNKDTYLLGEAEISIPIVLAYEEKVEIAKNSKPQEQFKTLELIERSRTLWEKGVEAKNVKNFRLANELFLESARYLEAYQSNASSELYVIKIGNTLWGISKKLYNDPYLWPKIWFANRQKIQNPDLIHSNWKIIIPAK

[8] = target: the molecule itself; experiment: SEC; analytical size exclusion chromatography on a calibrated Superose 12 column; apparent molecular masses from a standard curve

recombinant BB0323 (rBB0323) (from UniProt O51302 1-377) (natural protein)
Kd [1]: 658 nM | Kd [2]: 702 nM

recombinant BB0238 Y37A (rY37A) (natural protein)
stoichiometry N [3]: 2

recombinant BB0108 (enzyme)
Kd [4]: 1890 nM | Kd [5]: 2330 nM

recombinant BB0238 P65A (rP65A) (natural protein)
stoichiometry N [6]: 2

B1: recombinant wild-type BB0238 (rBB0238^WT) (natural protein)
chain: SSYIDKQKELAIFYYEVGQRYINVGKIKKGKLFQAKALKIYPDLKKGFDIKLAVKELDARIKDDNPKVVMLEDIKLEEIPGIVHEKIEINDFTNAPKIEYIAQRERSKNQDKIIKFQFGKFARALISRNFDLFDSVIADKVNVMGQFESKNDFISTLSSASSKADADELEYLSVDDYYDLKSLKISKSNDTSFAVNVNAKKNDVTKNFPFWKERQTLIFTTEDDNNWFLSSIN
modifications: labelled with NanoTemper Red-tris-NTA dye (in MST only)
Kd [7]: 1000 nM | stoichiometry N [8]: 2
